For assay [1], the target named is T1, human PD-L1 extracellular domain, mouse Fc (PD-L1.ECD.mFc, W3153-hPro1.ECD.mFc) (human, UniProt Q9NZQ7 19-238).
T1 construct: extracellular domain; also called WBP315-hPro1.ECD.mFc; antigen-2; not shown: mouse Fc tag at the C-terminus
Kind of assay: dual binding ELISA: plate coated with human VEGF, antibody titrated, then biotinylated PD-L1.ECD.mFc at 0.5 ug/ml.

The target of assay [2] is T2, mouse PD-L1 on 293F cells (WBP315.293F.mPro1.C1) (mouse, UniProt Q9EP73 19-290).
T2 construct: whole, on cells; also called engineered mouse PD-L1 expressing cells
Kind of assay: FACS on mouse PD-L1 expressing 293F cells, FITC anti-human IgG. The method, then: Engineered mouse PD-L1 expressing cells (WBP315.293F.mPro1.C1) were seeded at 1×10⁵ cells/well in U-bottom 96-well plates. Serial dilutions of the different antibodies were added to the cells. Plates were incubated at 4° C. for 1 hour. After wash, FITC-labeled goat anti-human IgG (Jackson ImmunoResearch, 109-095-008) was added to each well and the plates were incubated at 4° C. for 1 hour. […] UIgG1 onto the cells was tested by flow cytometry and the mean fluorescence intensity (MFI) was analyzed by FlowJo.

Assay [3] deals with T3, human PD-L1 on CHO-K1 cells (WBP315.CHO-K1.hPro1.C11) (human, UniProt Q9NZQ7 19-290).
T3 construct: whole, on cells; also called engineered human PD-L1 expressing cells
The experiment in a line: FACS on human PD-L1 expressing CHO-K1 cells, FITC anti-human IgG. How it is done: Engineered human PD-L1 expressing cells (WBP315.CHO-K1.hPro1.C11) were seeded at 1×10⁵ cells/well in U-bottom 96-well plates. […] UIgG1 was added to the cells. Plates were incubated at 4° C. for 1 hour. After wash, FITC-labeled goat anti-human IgG (Jackson ImmunoResearch, 109-095-008) was added to each well and the plates were incubated at 4° C. for 1 hour. The binding of the antibodies onto the cells was tested by flow cytometry and the mean fluorescence intensity (MFI) was analyzed by FlowJo.

The target of assay [4] is T4, cynomolgus monkey PD-L1 on 293F cells (WBP315.293F.cPro1.2A) (cynomolgus monkey, UniProt G7PSE7 19-290).
T4 construct: also called cynomolgus PD-L1; cyno PD-L1
The experiment in a line: FACS on cynomolgus PD-L1 expressing 293F cells, FITC anti-human IgG. The method, then:
Engineered cynomolgus monkey PD-L1 expressing cells (WBP315.293F.cPro1.2A) were seeded at 1×10⁵ cells/well in U-bottom 96-well plates. […] UIgG1 was added to the cells. Plates were incubated at 4° C. for 1 hour. After wash, FITC-labeled goat anti-human IgG (Jackson ImmunoResearch, 109-095-008) was added to each well and the plates were incubated at 4° C. for 1 hour. The binding of the antibodies onto the cells was tested by flow cytometry and the mean fluorescence intensity (MFI) was analyzed by FlowJo.

Assay [5] has as its target T5, human PD-L1 extracellular domain, his tag (W315-hPro1.ECD.his) (human, UniProt Q9NZQ7 19-238).
T5 construct: extracellular domain; Analyte in SPR; also called W315-hPro1.ECD.his (PD-L1); ECD of PD-L1; not shown: C-terminal his tag (6xhis)
Kind of assay: SPR (Biacore T200), antibody captured on anti-human Fc, antigen as analyte, 25 °C. The method, then: Biacore T200, Series S Sensor Chip CM5, Amine Coupling Kit, and 10×HBS-EP were purchased from GE Healthcare. The antibody was captured onto the anti-human Fc IgG (Jackson, 109-005-098) surface immobilized on CM5-biosensor chip (GE Healthcare Inc.). The assay was performed at 25° C. with HBS-EP+ buffer (GE Healthcare Inc.) as running and dilution buffer. Serially diluted PD-L1 antigen or VEGF antigen (W315-hPro1.ECD.his or W325-hPro1.his) and running buffer were injected for an association phase and followed dissociation phase detection. Regeneration of the chip surface was reached by an injection of 10 mM Glycine, pH 1.5.
The on-rate constant (ka) and off-rate constant (kd) were also measured in the mean time. Final data of each interaction was deducted from reference channel and buffer channel data.

The target in assay [6] is T6, mouse VEGF (WBP325-mPro1, Sino Biological, 50159-MNAB) (mouse, UniProt Q00731-2 27-190).
T6 construct: Bought protein
T6 sequence (looked up): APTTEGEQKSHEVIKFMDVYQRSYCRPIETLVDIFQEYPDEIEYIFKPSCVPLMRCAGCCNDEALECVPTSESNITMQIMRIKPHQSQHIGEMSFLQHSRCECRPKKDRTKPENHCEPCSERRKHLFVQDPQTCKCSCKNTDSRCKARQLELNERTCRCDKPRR
Kind of assay: ELISA, plate coated with mouse VEGF, detection with anti-human IgG Fc-HRP.

The target of assay [7] is T2, mouse PD-L1 on 293F cells …. Kind of assay: FACS competition on mouse PD-L1 expressing cells: antibody premixed with mouse Fc tagged murine PD-1 at 5 ug/ml, PE anti-mouse IgG; blocked ligand mouse PD-1. The method, then:
Mouse PD-L1 expressing […] (WBP315.293F.mPro1.C1) were seeded at 1×10⁵ cells/well in 96-well U-bottom plates. […] After washing, PE-labeled anti-mouse IgG was added and incubated with cells at 4° C. for 1 hour. Cells were washed twice and MFI of the cells was measured by a flow cytometer and analyzed by FlowJo.

Assay [8] addresses T3, human PD-L1 on CHO-K1 cells …. Kind of assay: FACS competition on human PD-L1 expressing CHO-K1 cells: antibody premixed with mouse Fc tagged human PD-1 at 5 ug/ml, PE anti-mouse IgG; blocked ligand human PD-1. How it is done: Human PD-L1 expressing CHO-K1 cells (WBP315.CHO-K1.hPro1.C11) were seeded at 1×10⁵ cells/well in 96-well U-bottom plates. […] After washing, PE-labeled anti-mouse IgG was added and incubated with cells at 4° C. for 45 minutes. Cells were washed twice and MFI of the cells was measured by a flow cytometer and analyzed by FlowJo.

T5 sequence (Q9NZQ7 19-238): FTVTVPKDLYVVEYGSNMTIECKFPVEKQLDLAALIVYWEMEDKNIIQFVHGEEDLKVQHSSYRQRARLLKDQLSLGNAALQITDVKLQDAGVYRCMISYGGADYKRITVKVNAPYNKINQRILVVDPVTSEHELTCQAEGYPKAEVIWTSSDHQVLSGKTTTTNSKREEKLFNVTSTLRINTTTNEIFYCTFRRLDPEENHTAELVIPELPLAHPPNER
T3 sequence (Q9NZQ7 19-290): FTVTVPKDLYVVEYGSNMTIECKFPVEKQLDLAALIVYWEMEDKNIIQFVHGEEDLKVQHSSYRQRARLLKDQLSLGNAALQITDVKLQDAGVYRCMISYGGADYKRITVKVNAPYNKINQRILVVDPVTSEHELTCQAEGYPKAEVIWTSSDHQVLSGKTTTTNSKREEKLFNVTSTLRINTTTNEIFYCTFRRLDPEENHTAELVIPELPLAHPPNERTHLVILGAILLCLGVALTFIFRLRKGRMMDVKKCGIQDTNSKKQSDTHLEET
T2 sequence (Q9EP73 19-290): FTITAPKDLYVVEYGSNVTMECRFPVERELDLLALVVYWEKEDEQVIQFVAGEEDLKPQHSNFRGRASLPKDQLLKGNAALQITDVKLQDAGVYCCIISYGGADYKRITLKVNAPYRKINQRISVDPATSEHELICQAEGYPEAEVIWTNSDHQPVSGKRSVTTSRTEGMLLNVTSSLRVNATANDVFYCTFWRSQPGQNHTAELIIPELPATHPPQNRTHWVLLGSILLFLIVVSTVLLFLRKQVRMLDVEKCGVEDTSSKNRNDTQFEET
T4 sequence (G7PSE7 entry or part of it limits assumed): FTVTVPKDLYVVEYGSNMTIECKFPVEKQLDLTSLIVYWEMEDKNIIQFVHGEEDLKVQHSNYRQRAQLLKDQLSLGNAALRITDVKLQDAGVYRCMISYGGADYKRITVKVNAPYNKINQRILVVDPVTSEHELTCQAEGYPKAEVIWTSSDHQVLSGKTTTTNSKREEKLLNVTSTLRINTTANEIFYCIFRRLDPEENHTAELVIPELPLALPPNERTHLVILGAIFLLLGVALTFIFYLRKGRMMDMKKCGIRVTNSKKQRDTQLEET
T1 sequence (Q9NZQ7 19-238): as the sequence (Q9NZQ7 19-238) above

B1: WBP325-BMK3.uIgG1 (Bevacizumab) (antibody, V domains shown)
VH: EVQLVESGGGLVQPGGSLRLSCAASGYTFTNYGMNWVRQAPGKGLEWVGWINTYTGEPTYAADFKRRFTFSLDTSKSTAYLQMNSLRAEDTAVYYCAKYPHYYGSSHWYFDVWGQGTLVTVSS
VL: DIQMTQSPSSLSASVGDRVTITCSASQDISNYLNWYQQKPGKAPKVLIYFTSSLHSGVPSRFSGSGSGTDFTLTISSLQPEDFATYYCQQYSTVPWTFGQGTKVEIK
notes: also called W325-BMK3.uIgG1; W325-BMK3
As to B1, in assay [1], the binding result is given as “no binding (tested: 100 nM)”.

B2: W3156-AP3R2-1A3-z12-hIgG1 (Fc fusion)
chain: EVQLVESGGGLVQPGGSLRLSCAASGHFSNLAVNWFRQAPGKERELVAGILWSGGSTFYADSVKGRFTISRGNAENMLYLQMNSLRAEDTAVYYCNTGTNWGQGTLVTVSS
notes: VHH in hIgG1 format as tested; The construction of the hIgG1 format is not described; also called anti-PD-L1 VHH antibody; parental anti-PD-L1 antibody; not shown: human IgG1 part (hIgG1) named in the label only
For the molecule B2, the “EC50 (read off the curve)” value is about 2 nM in assay [2], about 0.05 nM in assay [3] and about 2 nM in assay [4]. In assay [5], this molecule gave a dissociation constant Kd of 0.16 nM. In assay [5], the koff was 0.000291 s⁻¹. Moreover, the kon in assay [5] worked out at 1.82e+06 M⁻¹ s⁻¹. Moreover, the binding result in assay [6] was “no binding (tested: 100 nM)”. Also, the “IC50 (read off the curve)” value is about 2 nM in assay [7] and about 0.04 nM in assay [8].

The record behind these values is patent US20230242645A1 (WUXI BIOLOGICS SHANGHAI, published 2023).
